Data from patent publication US20240247080A1, “GLP1/GIP/NPY2 RECEPTOR TRIPLE AGONISTS” (Boehringer Ingelheim International GmbH, priority 2022, published 2024).
Starred links: 1 amine or outer side, 2 acyl side, 3 side chain; linkers in the order of their positions; H or OH if unused. Non-standard residues stand in square brackets, D forms with d. Groups on a side chain read outwards from the residue. No end group written: not given here. *: point of attachment. C20 diacid = O=C(O)CCCCCCCCCCCCCCCCCCC(=O)*; C18 diacid = O=C(O)CCCCCCCCCCCCCCCCC(=O)*; γGlu = O=C(O)[C@H](CCC(=O)[*:2])N[*:1]; εLys = N[C@@H](CCCCN[*:1])C(=O)[*:2]; AEEA = NCCOCCOCC(=O)O; Aib = CC(C)(N)C(=O)O

B1: Compound 99 (peptide)
peptide: YXEGTFTSDYSIXLEGQAQXAFVEWLIKGGPSSGASLRHYYNWLTRQRY
modifications: Aib at 2, 13, 20; K28 side chain: C20DA-gGlu-gGlu-gGlu-gGlu-gGlu-gGlu-eLys; C-terminal NH2
B2: Compound 95 (peptide)
peptide: YXEGTFTSDYSIXLEKQAQXAFVEWLIKGGPSSPASLRHYYNWLTRQRY
modifications: Aib at 2, 13, 20; K28 side chain: C20DA-gGlu-gGlu-gGlu-gGlu-gGlu-gGlu-eLys; C-terminal NH2
B3: Compound 172 (peptide)
peptide: YXEGTFTSDLSIXLEKQAQXAFVEWLIKGGPSSGASLRHYYNWLTRQRY
modifications: Aib at 2, 13, 20; K28 side chain: C20DA-gGlu-gGlu-gGlu-gGlu-gGlu-gGlu-eLys; C-terminal NH2
B4: Compound 103 (peptide)
peptide: YXEGTFTSDYSIXLEKQAQXAFVEWLIKGGPSSGASXRHYYNWLTRQRY
modifications: Aib at 2, 13, 20; Tle at 37; K28 side chain: C20DA-gGlu-gGlu-gGlu-gGlu-gGlu-gGlu-eLys; C-terminal NH2

How the values were obtained:
Test in all cases: cell-based or functional assay
[1] = target: T1, human neuropeptide Y2 receptor (human, UniProt P49146 1-381)
T1 sequence (looked up): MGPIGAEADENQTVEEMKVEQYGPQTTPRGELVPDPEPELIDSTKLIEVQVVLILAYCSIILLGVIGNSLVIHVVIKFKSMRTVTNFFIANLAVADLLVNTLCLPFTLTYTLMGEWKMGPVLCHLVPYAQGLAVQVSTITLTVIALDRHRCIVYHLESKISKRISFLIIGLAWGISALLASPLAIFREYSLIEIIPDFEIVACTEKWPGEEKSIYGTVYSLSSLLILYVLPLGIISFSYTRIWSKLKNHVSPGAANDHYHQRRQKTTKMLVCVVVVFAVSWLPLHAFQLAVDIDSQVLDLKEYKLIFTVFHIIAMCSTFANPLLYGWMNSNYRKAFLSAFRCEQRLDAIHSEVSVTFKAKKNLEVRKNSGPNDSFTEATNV

human GIP receptor = target: T2, human GIP receptor (human, UniProt P48546 22-466)
T2 sequence (looked up): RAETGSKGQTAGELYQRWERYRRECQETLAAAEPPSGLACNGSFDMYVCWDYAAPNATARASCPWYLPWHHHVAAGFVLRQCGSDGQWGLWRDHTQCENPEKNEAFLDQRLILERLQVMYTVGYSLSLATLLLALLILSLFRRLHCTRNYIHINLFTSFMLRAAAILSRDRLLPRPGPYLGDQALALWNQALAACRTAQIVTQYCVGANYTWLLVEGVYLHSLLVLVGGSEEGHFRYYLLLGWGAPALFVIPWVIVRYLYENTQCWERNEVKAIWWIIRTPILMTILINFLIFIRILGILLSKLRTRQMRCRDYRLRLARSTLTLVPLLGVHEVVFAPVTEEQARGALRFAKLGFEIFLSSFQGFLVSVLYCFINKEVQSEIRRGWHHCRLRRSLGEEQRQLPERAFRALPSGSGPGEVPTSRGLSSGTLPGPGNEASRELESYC

human GLP-1 receptor = human GLP-1 receptor (human, UniProt P43220 24-463)

| Binder | EC50 CreLuc hNPY2R 0.5% hP [1] | EC50 CreLuc hNPY2R 100% hP [1] | EC50 CreLuc hGIPR 0.5% hP (human GIP receptor) | EC50 CreLuc hGIPR 100% hP (human GIP receptor) | EC50 CreLuc hGLP1R 0.5% hP (human GLP-1 receptor) | EC50 CreLuc hGLP1R 100% hP (human GLP-1 receptor) |
| --- | --- | --- | --- | --- | --- | --- |
| B1 | 16.8 nM | 85.9 nM | 0.91 nM | 8.52 nM | 0.41 nM | 6.72 nM |
| B2 | 20.6 nM | 56.9 nM | 0.13 nM | 0.75 nM | 0.13 nM | 2.76 nM |
| B3 | 20.2 nM | 86.1 nM | 0.21 nM | 1.83 nM | 0.07 nM | 2 nM |
| B4 | 12 nM | 50.7 nM | 0.26 nM | 1.73 nM | 0.13 nM | 3.19 nM |
| Y[Aib]EGTFTSDYSI[Aib]LEKQAQ[Aib]EFVEWLIK([εLys-γGlu-γGlu-γGlu-γGlu-γGlu-γGlu-γGlu-C20 diacid])GGPSSGASLRHYYNWLTRQRY-NH2 [Compound 88] | 20.4 nM | 45.4 nM | 0.53 nM | 1.58 nM | 1.12 nM | 7.18 nM |
| Y[Aib]EGTFTSDYSI[Aib]LEEQAQ[Aib]AFVEWLIK([εLys-γGlu-γGlu-γGlu-γGlu-C20 diacid])GGPSSGASLRHYYNWLTRQRY-NH2 [Compound 97] | 14.9 nM | 70.4 nM | 0.14 nM | 0.95 nM | 0.15 nM | 3.08 nM |
| Y[Aib]EGTFTSDYSI[Aib]LEEQAQ[Aib]AFVEWLIKGGPSSGASLRHYYNWLTRQRY-NH2 (not fully specified (residue 28)) [Compound 105] | 10.4 nM | 69 nM | 0.2 nM | 0.87 nM | 0.14 nM | 1.66 nM |
| Y[Aib]EGTFTSDYSI[Aib]LEKQAQ[Aib]EFVEWLIK([AEEA-AEEA-γGlu-γGlu-γGlu-C18 diacid])GGPSSGASLRHYYNWLTRQRY-NH2 [Compound 171] | 7.51 nM | 30.4 nM | 0.2 nM | 0.83 nM | 0.27 nM | 4.17 nM |
| Y[Aib]EGTFTSDYSI[Aib]LEEQAQ[Aib]AFVEWLIKGGPSSGASLRHYYNWLTRQRY-NH2 (not fully specified (residue 28)) [Compound 100] | 11.2 nM | 48 nM | 0.1 nM | 0.87 nM | 0.12 nM | 2.21 nM |
| Y[Aib]EGTFTSDYSI[Aib]LEKQAQ[Aib]AFVQWLIKGGPSEPASLRHYYNWLTRQRY-NH2 (not fully specified (residue 28)) [Compound 101] | 12.1 nM | 26.5 nM | 0.15 nM | 1.43 nM | 0.1 nM | 2.5 nM |
| Y[Aib]EGTFTSDYSI[Aib]LEKQAQ[Aib]AFVQWLIK([εLys-γGlu-γGlu-γGlu-Glu-γGlu-γGlu-γGlu-C20 diacid])GGPSSGASLRHYYNWLTRQRY-NH2 [Compound 92] | 7.48 nM | 27.9 nM | 0.33 nM | 1.64 nM | 0.08 nM | 3.16 nM |
